Patent publication US20140087995A1 (published 2014)
Numbered stars: 1 amine (or outer) side, 2 acyl side, 3 side chain; on linkers, the order of the positions; unused ones are H or OH. Bridge positions count the residues as written; N and C are the ends. Side chains are listed from the residue outwards. Ends that are not written are not given here. * marks the point of attachment. C20 diacid = O=C(O)CCCCCCCCCCCCCCCCCCC(=O)*; γGlu = O=C(O)[C@H](CCC(=O)[*:2])N[*:1]

T1: human amylin 3(a) receptor (human calcitonin receptor co-expressed with RAMP-3) (human, UniProt P30988 25-474; O60896 24-148, limits assumed)
T1 sequence (looked up) 1: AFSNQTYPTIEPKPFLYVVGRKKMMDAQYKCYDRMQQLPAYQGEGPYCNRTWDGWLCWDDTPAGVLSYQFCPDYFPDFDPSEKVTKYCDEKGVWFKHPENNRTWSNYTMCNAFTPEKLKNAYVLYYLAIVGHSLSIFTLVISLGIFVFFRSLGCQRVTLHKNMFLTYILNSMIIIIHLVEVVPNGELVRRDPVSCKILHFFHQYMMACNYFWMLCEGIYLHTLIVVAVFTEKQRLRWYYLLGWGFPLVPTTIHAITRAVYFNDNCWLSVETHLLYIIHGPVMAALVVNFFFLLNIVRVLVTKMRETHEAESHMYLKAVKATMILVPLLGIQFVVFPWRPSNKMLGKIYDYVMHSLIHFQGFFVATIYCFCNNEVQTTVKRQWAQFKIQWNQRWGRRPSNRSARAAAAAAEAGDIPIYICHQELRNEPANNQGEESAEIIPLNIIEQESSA
T1 sequence (looked up) 2: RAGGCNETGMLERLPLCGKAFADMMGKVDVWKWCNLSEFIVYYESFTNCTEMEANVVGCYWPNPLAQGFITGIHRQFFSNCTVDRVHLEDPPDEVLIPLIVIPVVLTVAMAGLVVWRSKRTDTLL

T2: human calcitonin receptor (human, UniProt P30988 25-474)
T2 sequence (looked up): T1 sequence (looked up) 1

B1: N^ε1-[(4S)-4-carboxy-4-(19-carboxynonadecanoylamino)butanoyl]-[His14,Arg17,Pro21,Pro27,Arg34]-h-amylin (peptide)
peptide: K([γGlu-C20 diacid])CNTATCATQRLAHFLRHSSPNFGAIPSSTNVGRNTY-NH2
modifications: disulfide 2-7; N-terminus assumed
SMILES: CC[C@H](C)[C@H](NC(=O)[C@H](C)NC(=O)CNC(=O)[C@H](Cc1ccccc1)NC(=O)[C@H](CC(N)=O)NC(=O)[C@@H]1CCCN1C(=O)[C@H](CO)NC(=O)[C@H](CO)NC(=O)[C@H](Cc1c[nH]cn1)NC(=O)[C@H](CCCNC(=N)N)NC(=O)[C@H](CC(C)C)NC(=O)[C@H](Cc1ccccc1)NC(=O)[C@H](Cc1c[nH]cn1)NC(=O)[C@H](C)NC(=O)[C@H](CC(C)C)NC(=O)[C@H](CCCNC(=N)N)NC(=O)[C@H](CCC(N)=O)NC(=O)[C@@H](NC(=O)[C@H](C)NC(=O)[C@@H]1CSSC[C@H](NC(=O)[C@@H](N)CCCCNC(=O)CC[C@H](NC(=O)CCCCCCCCCCCCCCCCCCC(=O)O)C(=O)O)C(=O)N[C@@H](CC(N)=O)C(=O)N[C@@H]([C@@H](C)O)C(=O)N[C@@H](C)C(=O)N[C@@H]([C@@H](C)O)C(=O)N1)[C@@H](C)O)C(=O)N1CCC[C@H]1C(=O)N[C@@H](CO)C(=O)N[C@@H](CO)C(=O)N[C@H](C(=O)N[C@@H](CC(N)=O)C(=O)N[C@H](C(=O)NCC(=O)N[C@@H](CCCNC(=N)N)C(=O)N[C@@H](CC(N)=O)C(=O)N[C@H](C(=O)N[C@@H](Cc1ccc(O)cc1)C(N)=O)[C@@H](C)O)C(C)C)[C@@H](C)O
notes: also called compound 85
B2: N^ε1-[(4S)-4-carboxy-4-(19-carboxynonadecanoylamino)butanoyl]-[His14,Arg17,Pro21,Pro27,Pro31,Pro34]-h-amylin (peptide)
peptide: K([γGlu-C20 diacid])CNTATCATQRLAHFLRHSSPNFGAIPSSTPVGPNTY-NH2
modifications: disulfide 2-7; N-terminus assumed
SMILES: CC[C@H](C)[C@H](NC(=O)[C@H](C)NC(=O)CNC(=O)[C@H](Cc1ccccc1)NC(=O)[C@H](CC(N)=O)NC(=O)[C@@H]1CCCN1C(=O)[C@H](CO)NC(=O)[C@H](CO)NC(=O)[C@H](Cc1c[nH]cn1)NC(=O)[C@H](CCCNC(=N)N)NC(=O)[C@H](CC(C)C)NC(=O)[C@H](Cc1ccccc1)NC(=O)[C@H](Cc1c[nH]cn1)NC(=O)[C@H](C)NC(=O)[C@H](CC(C)C)NC(=O)[C@H](CCCNC(=N)N)NC(=O)[C@H](CCC(N)=O)NC(=O)[C@@H](NC(=O)[C@H](C)NC(=O)[C@@H]1CSSC[C@H](NC(=O)[C@@H](N)CCCCNC(=O)CC[C@H](NC(=O)CCCCCCCCCCCCCCCCCCC(=O)O)C(=O)O)C(=O)N[C@@H](CC(N)=O)C(=O)N[C@@H]([C@@H](C)O)C(=O)N[C@@H](C)C(=O)N[C@@H]([C@@H](C)O)C(=O)N1)[C@@H](C)O)C(=O)N1CCC[C@H]1C(=O)N[C@@H](CO)C(=O)N[C@@H](CO)C(=O)N[C@H](C(=O)N1CCC[C@H]1C(=O)N[C@H](C(=O)NCC(=O)N1CCC[C@H]1C(=O)N[C@@H](CC(N)=O)C(=O)N[C@H](C(=O)N[C@@H](Cc1ccc(O)cc1)C(N)=O)[C@@H](C)O)C(C)C)[C@@H](C)O
B3: N^ε1-[(4S)-4-carboxy-4-(19-carboxynonadecanoylamino)butanoyl]-[His14,Arg17,Pro21,Pro27,His34]-h-amylin (peptide)
peptide: K([γGlu-C20 diacid])CNTATCATQRLAHFLRHSSPNFGAIPSSTNVGHNTY-NH2
modifications: disulfide 2-7; N-terminus assumed
SMILES: CC[C@H](C)[C@H](NC(=O)[C@H](C)NC(=O)CNC(=O)[C@H](Cc1ccccc1)NC(=O)[C@H](CC(N)=O)NC(=O)[C@@H]1CCCN1C(=O)[C@H](CO)NC(=O)[C@H](CO)NC(=O)[C@H](Cc1c[nH]cn1)NC(=O)[C@H](CCCNC(=N)N)NC(=O)[C@H](CC(C)C)NC(=O)[C@H](Cc1ccccc1)NC(=O)[C@H](Cc1c[nH]cn1)NC(=O)[C@H](C)NC(=O)[C@H](CC(C)C)NC(=O)[C@H](CCCNC(=N)N)NC(=O)[C@H](CCC(N)=O)NC(=O)[C@@H](NC(=O)[C@H](C)NC(=O)[C@@H]1CSSC[C@H](NC(=O)[C@@H](N)CCCCNC(=O)CC[C@H](NC(=O)CCCCCCCCCCCCCCCCCCC(=O)O)C(=O)O)C(=O)N[C@@H](CC(N)=O)C(=O)N[C@@H]([C@@H](C)O)C(=O)N[C@@H](C)C(=O)N[C@@H]([C@@H](C)O)C(=O)N1)[C@@H](C)O)C(=O)N1CCC[C@H]1C(=O)N[C@@H](CO)C(=O)N[C@@H](CO)C(=O)N[C@H](C(=O)N[C@@H](CC(N)=O)C(=O)N[C@H](C(=O)NCC(=O)N[C@@H](Cc1c[nH]cn1)C(=O)N[C@@H](CC(N)=O)C(=O)N[C@H](C(=O)N[C@@H](Cc1ccc(O)cc1)C(N)=O)[C@@H](C)O)C(C)C)[C@@H](C)O
notes: also called compound 81
B4: N^ε1-[(4S)-4-carboxy-4-[[(4S)-4-carboxy-4-(19-carboxynonadecanoylamino)butanoyl]amino]butanoyl]-[Arg17,Pro21,Pro27,His34]-h-amylin (peptide)
peptide: K([γGlu-γGlu-C20 diacid])CNTATCATQRLANFLRHSSPNFGAIPSSTNVGHNTY-NH2
modifications: disulfide 2-7; N-terminus assumed
SMILES: CC[C@H](C)[C@H](NC(=O)[C@H](C)NC(=O)CNC(=O)[C@H](Cc1ccccc1)NC(=O)[C@H](CC(N)=O)NC(=O)[C@@H]1CCCN1C(=O)[C@H](CO)NC(=O)[C@H](CO)NC(=O)[C@H](Cc1c[nH]cn1)NC(=O)[C@H](CCCNC(=N)N)NC(=O)[C@H](CC(C)C)NC(=O)[C@H](Cc1ccccc1)NC(=O)[C@H](CC(N)=O)NC(=O)[C@H](C)NC(=O)[C@H](CC(C)C)NC(=O)[C@H](CCCNC(=N)N)NC(=O)[C@H](CCC(N)=O)NC(=O)[C@@H](NC(=O)[C@H](C)NC(=O)[C@@H]1CSSC[C@H](NC(=O)[C@@H](N)CCCCNC(=O)CC[C@H](NC(=O)CC[C@H](NC(=O)CCCCCCCCCCCCCCCCCCC(=O)O)C(=O)O)C(=O)O)C(=O)N[C@@H](CC(N)=O)C(=O)N[C@@H]([C@@H](C)O)C(=O)N[C@@H](C)C(=O)N[C@@H]([C@@H](C)O)C(=O)N1)[C@@H](C)O)C(=O)N1CCC[C@H]1C(=O)N[C@@H](CO)C(=O)N[C@@H](CO)C(=O)N[C@H](C(=O)N[C@@H](CC(N)=O)C(=O)N[C@H](C(=O)NCC(=O)N[C@@H](Cc1c[nH]cn1)C(=O)N[C@@H](CC(N)=O)C(=O)N[C@H](C(=O)N[C@@H](Cc1ccc(O)cc1)C(N)=O)[C@@H](C)O)C(C)C)[C@@H](C)O
notes: also called compound 86
B5: N^ε1-[(4S)-4-carboxy-4-[[(4S)-4-carboxy-4-(19-carboxynonadecanoylamino)butanoyl]amino]butanoyl]-[Glu14,Arg17,Pro21,Pro27,Arg34]-h-amylin (peptide)
peptide: K([γGlu-γGlu-C20 diacid])CNTATCATQRLAEFLRHSSPNFGAIPSSTNVGRNTY-NH2
modifications: disulfide 2-7; N-terminus assumed
SMILES: CC[C@H](C)[C@H](NC(=O)[C@H](C)NC(=O)CNC(=O)[C@H](Cc1ccccc1)NC(=O)[C@H](CC(N)=O)NC(=O)[C@@H]1CCCN1C(=O)[C@H](CO)NC(=O)[C@H](CO)NC(=O)[C@H](Cc1c[nH]cn1)NC(=O)[C@H](CCCNC(=N)N)NC(=O)[C@H](CC(C)C)NC(=O)[C@H](Cc1ccccc1)NC(=O)[C@H](CCC(=O)O)NC(=O)[C@H](C)NC(=O)[C@H](CC(C)C)NC(=O)[C@H](CCCNC(=N)N)NC(=O)[C@H](CCC(N)=O)NC(=O)[C@@H](NC(=O)[C@H](C)NC(=O)[C@@H]1CSSC[C@H](NC(=O)[C@@H](N)CCCCNC(=O)CC[C@H](NC(=O)CC[C@H](NC(=O)CCCCCCCCCCCCCCCCCCC(=O)O)C(=O)O)C(=O)O)C(=O)N[C@@H](CC(N)=O)C(=O)N[C@@H]([C@@H](C)O)C(=O)N[C@@H](C)C(=O)N[C@@H]([C@@H](C)O)C(=O)N1)[C@@H](C)O)C(=O)N1CCC[C@H]1C(=O)N[C@@H](CO)C(=O)N[C@@H](CO)C(=O)N[C@H](C(=O)N[C@@H](CC(N)=O)C(=O)N[C@H](C(=O)NCC(=O)N[C@@H](CCCNC(=N)N)C(=O)N[C@@H](CC(N)=O)C(=O)N[C@H](C(=O)N[C@@H](Cc1ccc(O)cc1)C(N)=O)[C@@H](C)O)C(C)C)[C@@H](C)O
notes: also called compound 88

Target: T1, human amylin 3(a) receptor (human …)
Test: cell-based or functional assay

hAmylin-R funct. EC50 [nM]	Binder
0.146	B1
0.071	B2
0.13	B3
0.298	B4
0.773	B5

Target: T2, human calcitonin receptor
Test: cell-based or functional assay

Ratio hCT/hAmylin funct.	hCTR funct. EC50 [nM]	Binder
26.6	3.88	B1
4.9	0.345	B2
13.3	1.73	B3
64.4	19.2	B4
8.5	6.55	B5
